These are literature values, as cited in patent publication US4347323A, “Glycerol kinase from Streptomyces canus” (Toyo Jozo Kabushiki Kaisha, priority 1979, dated 1982).

The conditions of this series: known glycerol kinases.

B1: E.Co-GK: known glycerol kinase of Escherichia coli (protein, UniProt P0A6F3 2-502, looked up)
Glycerol kinase: TEKKYIVALDQGTTSSRAVVMDHDANIISVSQREFEQIYPKPGWVEHDPMEIWATQSSTLVEVLAKADISSDQIAAIGITNQRETTIVWEKETGKPIYNAIVWQCRRTAEICEHLKRDGLEDYIRSNTGLVIDPYFSGTKVKWILDHVEGSRERARRGELLFGTVDTWLIWKMTQGRVHVTDYTNASRTMLFNIHTLDWDDKMLEVLDIPREMLPEVRRSSEVYGQTNIGGKGGTRIPISGIAGDQQAALFGQLCVKEGMAKNTYGTGCFMLMNTGEKAVKSENGLLTTIACGPTGEVNYALEGAVFMAGASIQWLRDEMKLINDAYDSEYFATKVQNTNGVYVVPAFTGLGAPYWDPYARGAIFGLTRGVNANHIIRATLESIAYQTRDVLEAMQADSGIRLHALRVDGGAVANNFLMQFQSDILGTRVERPEVREVTALGAAYLAGLAVGFWQNLDELQEKAVIEREFRPGIETTERNYRYAGWKKAVKRAMAWEEHDE
For B1, the pH stability was 6.5-7 pH.
